Measurements taken from patent US20170002084A1 (VET THERAPEUTICS, published 2017).
Substitutions are numbered along the chain they refer to. Where two headings read alike, the source gives them in different places.

T1: Canine CD20 (canine, UniProt Q3C2E2 1-297)
T1 construct: also called recombinant canine CD20; dog CD20
T1 chain: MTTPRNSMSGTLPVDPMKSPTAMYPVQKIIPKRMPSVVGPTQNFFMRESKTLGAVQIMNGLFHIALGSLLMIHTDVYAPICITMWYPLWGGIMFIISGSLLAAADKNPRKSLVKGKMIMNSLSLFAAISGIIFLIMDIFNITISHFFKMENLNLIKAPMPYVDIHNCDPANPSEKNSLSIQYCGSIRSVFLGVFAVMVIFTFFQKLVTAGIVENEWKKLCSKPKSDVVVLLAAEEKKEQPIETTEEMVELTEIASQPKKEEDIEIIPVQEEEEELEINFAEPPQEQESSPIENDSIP

T2: Feline CD20 (feline)
T2 construct: also called recombinant feline CD20
T2 chain: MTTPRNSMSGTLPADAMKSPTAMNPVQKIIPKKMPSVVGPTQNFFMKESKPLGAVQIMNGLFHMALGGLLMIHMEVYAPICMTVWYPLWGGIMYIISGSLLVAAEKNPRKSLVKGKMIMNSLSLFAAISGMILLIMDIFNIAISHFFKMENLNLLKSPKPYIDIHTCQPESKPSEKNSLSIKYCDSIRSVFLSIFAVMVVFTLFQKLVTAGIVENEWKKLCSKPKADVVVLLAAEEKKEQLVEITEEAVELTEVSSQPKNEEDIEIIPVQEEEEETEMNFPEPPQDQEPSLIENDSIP

B1: anti-canine CD20 antibody CD20-5 (VET308) (antibody, V domains shown)
VH: QVQLKQSGAELVKPGASVKISCKASGYTFTDYYINWVKQRPGQGLEWIGKIGPRSGSIYYNEKFKGKATLTADKSSSTAYMQLRSLTSEDSAVYFCAVLKWGQGTLVTVSS
VL: not shown
notes: also called Mab CD20-5
B2: VET 133 × VET 260 (antibody, V domains shown)
VH: QVQLQQSRAELVRPGASVTLSCKPSGYTFTDYEVHWVKQTPVHGLEWIGAIDPETGGTADNQKFKGKAILTADKSSSTAYMELRSLTSEDSAVYYCTNFVDVWGTGTTVTVSS
VL: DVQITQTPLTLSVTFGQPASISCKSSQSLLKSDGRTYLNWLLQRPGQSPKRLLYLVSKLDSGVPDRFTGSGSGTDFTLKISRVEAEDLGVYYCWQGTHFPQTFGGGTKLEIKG
notes: Mixed pairing: CD20-1 light chain with CD20-2 heavy chain; also called VET133 x VET260
B3: anti-canine CD20 antibody CD20-6 (VET309) (antibody, V domains shown)
VH: EIQLQQSGAELVRPGASVTLSCKASGYTFTDYEMHWVKQTPVHGLEWIGGIDPETGGTAYNQKFKGKAILTADKSSSTVYMELRSLTSEDSAVYYCTRDYGTSGYWGQGTLVTVSS
VL: DVVVTQTPLSLPVSFGDQVSISCRSSQSLANSYGNTYLSWYLHKPGQSPQLLIYGISNRFSGVPDRFSGSGSGTDFTLKISRVEAEDLGVYFCSQSTHVPWTFGGGTHLTVLG
notes: also called Mab CD20-6
B4: VET 124 × VET 237 (antibody, V domains shown)
VH: EVQLQQSVAELVRPGASVTLSCKASGYTFTDYEMHWVKQTPVHGLEWIGEIDPETGGTAYNQKFKGKAILTADKSSSTAYMELRSLTSEDSAVYYCTEYAMDYWGQGTLVTVSS
VL: not shown
notes: also called VET124 x VET237
B5: VET 135 × VET 260 (antibody)
heavy: QVQLQQSRAELVRPGASVTLSCKPSGYTFTDYEVHWVKQTPVHGLEWIGAIDPETGGTADNQKFKGKAILTADKSSSTAYMELRSLTSEDSAVYYCTNFVDVWGTGTTVTVSSASTTAPSVFPLAPSCGSQSGSTVALACLVSGYFPEPVTVSWNSGSLTSGVHTFPSVLQSSGLYSLSSMVTVPSSRWPSETFTCNVAHPASKTKVDKPVPKRENGRVPRPPDCPKCPAPEMLGGPSVFIFPPKPKDTLLIARTPEVTCVVVDLDPEDPEVQISWFVDGKQMQTAKTQPREEQFNGTYRVVSVLPIGHQDWLKGKQFTCKVNNKALPSPIERTISKARGQAHQPSVYVLPPSREELSKNTVSLTCLIKDFFPPDIDVEWQSNGQQEPESKYRTTPPQLDEDGSYFLYSKLSVDKSRWQRGDTFICAVMHEALHNHYTQKSLSHSPGK
light: DVVMSQSPSSLAVSVGEKVTMSCKSSQSLLYSGNQKNYLAWYQQKPGQSPRLLIYWASTRESGVPDRFTGSGSGTDFTLTISSVKAEDLAVFYCQQYYNYPLTFGAGTKLELKGQPKASPSVTLFPPSSEELGANKATLVCLISDFYPSGVTVAWKADGSPITQGVETTKPSKQSNNKYAASSYLSLTPDKWKSHSSFSCLVTHEGSTVEKKVAPAECS
notes: CD20-2 variable domains on canine constant domains; light chain differs from VET305 (which has the FR4T light chain); also called VET135 x VET260
B6: anti-canine CD20 antibody CD20-2 (VET305) (antibody)
heavy: B5 heavy
light: B5 light with A106G, K109H, E111T, L112V, K113L
notes: also called Mab CD20-2
B7: VET 135 × VET 257 (antibody, V domains shown)
VH: EIQLQQSGAELVKPGASVKISCKASGYTFTDYYINWVKQRPGQGLEWIGKIGPGSGRTYYNEKFKGKATLTADKSSSTAYIQISSLTSEDSAVYFCAVLSWGQGTTLTVSS
VL: DVVMSQSPSSLAVSVGEKVTMSCKSSQSLLYSGNQKNYLAWYQQKPGQSPRLLIYWASTRESGVPDRFTGSGSGTDFTLTISSVKAEDLAVFYCQQYYNYPLTFGAGTKLELKG
notes: Mixed pairing: CD20-2 light chain with CD20-1 heavy chain; also called VET135 x VET257
B8: anti-canine CD20 antibody CD20-1 (antibody, V domains shown)
VH: B7 VH
VL: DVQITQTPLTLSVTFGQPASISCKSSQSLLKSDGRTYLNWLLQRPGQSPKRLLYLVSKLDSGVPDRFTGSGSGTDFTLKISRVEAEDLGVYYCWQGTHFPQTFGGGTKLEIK
notes: called 'recombinant anti-canine CD20 antibody'; also called Mab CD20-1
B9: VET 133 × VET 257 (antibody, V domains shown)
VH: B7 VH
VL: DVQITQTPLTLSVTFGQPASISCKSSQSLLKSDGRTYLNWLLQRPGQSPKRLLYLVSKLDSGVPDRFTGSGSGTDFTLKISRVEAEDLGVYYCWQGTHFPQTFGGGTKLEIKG
notes: Light chain vector VET133 co-transfected with heavy chain vector VET257 in 293F cells; mouse variable domains on canine constant domains; also called VET133 x VET257

Legend:
[1] = target: T1, Canine CD20; experiment: FACS on HEK cells expressing recombinant canine CD20, antibody 2.5 µg/mL
Experimental: (§1) In the present example, the antibody variants (2.5 μg/mL) are incubated with mammalian cells expressing the recombinant feline CD20 or canine CD20 or control cells. The amount of bound antibody is assessed by detection with a fluorescent-labeled reporter antibody reagent. Several controls are utilized to determine the background fluorescence: (i) CD20 expressing cells are incubated with the conjugated secondary antibody with an isotype antibody, and (ii) Control cells are incubated with the anti-CD20 antibodies.
(§2) The results reported as mean fluorescence units evidence effective binding of the antibodies CD20-2, CD20-5, and CD20-6 to the recombinant canine CD20 expressed in HEK cells. Only CD20-2 and CD20-5 antibodies bind feline CD20 expressed in mammalian cells.

[2] = target: T1, Canine CD20; experiment: FACS on CHO cells expressing recombinant canine CD20
Experimental: The antibody variants of the present invention are compared for their binding affinity to canine CD20. Binding affinity is assessed by measuring binding to the recombinant canine CD20 expressed in CHO cells by FACS analysis as described above.

[3] = target: T1, Canine CD20; experiment: cell-based or functional assay
[4] = target: T2, Feline CD20; experiment: FACS on mammalian cells expressing recombinant feline CD20, antibody 2.5 µg/mL
Experimental: as §1, §2

[5] = target: T1, Canine CD20; experiment: FACS on canine PBMC, 2 µg antibody, FITC anti-dog IgG
Experimental: In the present example, the antibody variants are incubated with the CD20 positive cells and the amount of bound antibody is assessed following incubation with a fluorescent-labeled reporter reagent. The reporter is thereafter measured by FACS.
Briefly, for each assay, one million cells of Peripheral Blood Mononuclear Cell (PBMC) isolated from whole blood from a normal dog by standard techniques were resuspended in FACS buffer (PBS+2% FBS). Two μg of the primary antibody are added to the cells and the samples were incubated at 4° C. for 1 h. The primary antibody is provided as supernatants from transfected cells with recombinant antibody constructs or from purified antibody preparation. The mouse anti-dog CD21 mAb (Serotec) recognizing B-lymphocytes is added to the cells as a control to estimate the percentage of B-lymphocytes in a given sample. One ml of FACS buffer are added and cells are spun down for 3 min at 800×g in Eppendorf microcentrifuge. The cells are washed with 1 mL FACS buffer and spun down again. The secondary antibodies such as fluorescein-isothiocynate (FITC) conjugated goat anti-mouse kappa (mFITC, Jackson ImmunoResearch), or the FITC-conjugated goat anti-dog IgG (H+L) (dFITC, Bethyl Laboratories) are added in 100 μL of FACS buffer supplemented with 1% BSA to appropriate tubes and the tubes were incubated at 4° C. for 30 minutes. The wash steps are repeated. The cells are then resuspended in 500 μL FACS buffer and transferred into 12×75 mm polystyrene test tubes. The cells are analyzed by FACS with a FacScan cytometer using the CellQuest software (Becton-Dickenson). Analysis gates are set on the live lymphocyte population based on typical forward and side scatter characteristics. Several controls are utilized to determine the background fluorescence: (i) one tube of cells is incubated with the FITC-conjugated secondary antibody without the primary antibody, and (ii) one tube of cells is incubated with PBS only.
The overall percentage of B-cell subset in this sample is estimated to be approximately 12% based on the binding of the anti-dog CD21 mab control. The results of Table 3 evidence effective binding of the antibody variants to lymphocytes.

[6] = target: T2, Feline CD20; experiment: FACS on mammalian cells expressing recombinant feline CD20
Experimental: as §1, §2

[7] = target: T1, Canine CD20; experiment: FACS on CHO cells expressing recombinant canine CD20

Row | Binder | mean fluorescence units [1] [mean fluorescence units] | Kd [2] [nM] | Reduction (%) of cell proliferation of lymphoma cells [3] [%] | mean fluorescence units [4] [mean fluorescence units] | % Lymphocytes [5] [%] | Mean Fluorescence [5] | also measured
1 | B1 | 2770 | 1.21 | 60.1 | 2048 |  |  | 
2 | B2 |  |  |  |  | 13.7 | 2910 | 
3 | B3 | 2110 | 63.4 | 27.6 | 60 |  |  | binding result [6]: no binding (tested: 2.5 µg/mL)
4 | B4 |  |  |  |  | 13 | 2660 | 
5 | B5 |  |  |  |  | 12.7 | 2660 | 
6 | B6 | 2340 | 8.85 | 55 | 2210 |  |  | 
7 | B7 |  |  |  |  | 8.33 | 2500 | 
8 | B8 |  |  |  |  |  |  | Kd [7]: 1 nM
9 | B9 |  |  |  |  | 12 | 3170 | 
